Laboratory results: patent WO2012175740A1

Target: cyno IgE c(epsilon)2-c(epsilon)3-c(epsilon)4 Fc fragment with C-terminal (His)10 tag (cynomolgus monkey)
Assay: Alphascreen, competition with HuFc(epsilon)RI(alpha)Fc for cyno IgE Fc

Sequence of cyno IgE c(epsilon)2-c(epsilon)3-c(epsilon)4 Fc fragment with C-terminal (His)10 tag (cynomolgus monkey) (chain, as listed by the source): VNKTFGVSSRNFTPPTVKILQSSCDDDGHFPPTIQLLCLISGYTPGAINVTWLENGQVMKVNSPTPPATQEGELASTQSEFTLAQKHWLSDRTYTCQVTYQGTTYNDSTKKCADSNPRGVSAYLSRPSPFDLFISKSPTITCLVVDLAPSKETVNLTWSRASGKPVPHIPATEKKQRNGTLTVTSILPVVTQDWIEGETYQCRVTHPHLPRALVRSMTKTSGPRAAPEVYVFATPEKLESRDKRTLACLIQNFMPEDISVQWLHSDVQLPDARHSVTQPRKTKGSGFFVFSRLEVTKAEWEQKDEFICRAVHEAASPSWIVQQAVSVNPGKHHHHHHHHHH

B1: Nanobody 39B2 (VHH, not shown: small tags and cut ends)
VHH: EVQLVESGGGLVQPGGSLRLSCAASGFTFGSYDMSWVRQAPGKGPEWVSAINSGGGSTYYADSVKGRFTISRDNAKNTLYLQMNSLKPEDTAVYYCSTDLGPWIEGTMEEYEYEYWGQGTQVTVSS
Which % inhibition at 250 nM Nanobody does the source give for B1 here?
Its % inhibition at 250 nM Nanobody is 38%.
